# Measured values: patent US20230242902A1, “A HIGHLY ERROR-PRONE […] R[…] FOR TARGETED CONTINUOUS EVOLUTION IN VIVO” (The Regents of the University of California, priority 2017, published 2023)
# B1: V406Q: TP-DNAP1 variant (protein)
# chain: MDYKDKALNDLRNVYADFDSLPLDFRQILIKDRATLLQKEDVEKKILERQEDAKKYAEYLKQSEIPERISLPNIKRHKGVSISFEETSEDMVLEPRPFIFDGLNIRCFRRETIFSLKNKILNMVKESSSFKNVSRQSVSFMYFKIFNKGKVIASTKSVNIYEDKIDERLEDLCNNFDDVLKKIIDVTYGYESLFVSETYSYVIFYAKSIYFPQPRCVNNWGNNIPNILTFDSFKLFTANKNNVSCIKQCSRFLWQKDFNTLEEMIEYKNGNICIVTPQLHINDVRDIKSFNDIRLYSESPIKTFSVIDNTITYLFYFKEHLGVIFNITKSRHDRRVTKFSPLSKFSDVKNITVCFDIESYFDPEKESNQVNIPFICCASIIYNKVIGNIVDFEGRDCVAQMIEYVQDICGELNISSVELIAHNGGGYDFHYILSSMYNPAAIKNILIRNNSFISFNFAHDGVKFSVKDSYSFLLCSLANASKAFLNEETFKKTDFPHHDLKTADDLYKVYKEWSSVNTEINHVVEKEKLLITSEHIVNFTKNDKSKTLIEWSKDYCRNDVLVLSKVWLEFKNAVEDIFNCELVDQTMTLAGLSYKLFQANMPFDVELRHPNKEDYFNMREALIGGRCISVNGIYKDVLCLDVKSLYPASMAFYDQPYGSFKRVSSRPKDELGIYYVRVTPNRNNKSNFFPIRSHNKITYNNFEESTYIAWYTNVDIDIGLSEGHNIEYIPFDSYGNIGYSWSKKGKIFEKYIKDVLYKLKIKYEKQNNKVKRNVIKIIMNSLWGKFAQKWVNFEYFIKSEDDIDFESEEAYKIWDTDFMLIKKIKESTYSSKPIQNGVFTLSWARYHMKSIWDAGAKEGAECIYSDTDSIFVHKEHFKKNAKFMLNGLKVPIIGSEVGQLELECEFDKLLCAGKKQYMGFYTYFQDGKPCIKEKKRFKGIPSNYIIPELYAHLLSGADKEAKIQFLKFRREWGSVKGYIENKTVKAT
# B2: D407A: TP-DNAP1 variant (protein)
# chain: MDYKDKALNDLRNVYADFDSLPLDFRQILIKDRATLLQKEDVEKKILERQEDAKKYAEYLKQSEIPERISLPNIKRHKGVSISFEETSEDMVLEPRPFIFDGLNIRCFRRETIFSLKNKILNMVKESSSFKNVSRQSVSFMYFKIFNKGKVIASTKSVNIYEDKIDERLEDLCNNFDDVLKKIIDVTYGYESLFVSETYSYVIFYAKSIYFPQPRCVNNWGNNIPNILTFDSFKLFTANKNNVSCIKQCSRFLWQKDFNTLEEMIEYKNGNICIVTPQLHINDVRDIKSFNDIRLYSESPIKTFSVIDNTITYLFYFKEHLGVIFNITKSRHDRRVTKFSPLSKFSDVKNITVCFDIESYFDPEKESNQVNIPFICCASIIYNKVIGNIVDFEGRDCVAQMIEYVVAICGELNISSVELIAHNGGGYDFHYILSSMYNPAAIKNILIRNNSFISFNFAHDGVKFSVKDSYSFLLCSLANASKAFLNEETFKKTDFPHHDLKTADDLYKVYKEWSSVNTEINHVVEKEKLLITSEHIVNFTKNDKSKTLIEWSKDYCRNDVLVLSKVWLEFKNAVEDIFNCELVDQTMTLAGLSYKLFQANMPFDVELRHPNKEDYFNMREALIGGRCISVNGIYKDVLCLDVKSLYPASMAFYDQPYGSFKRVSSRPKDELGIYYVRVTPNRNNKSNFFPIRSHNKITYNNFEESTYIAWYTNVDIDIGLSEGHNIEYIPFDSYGNIGYSWSKKGKIFEKYIKDVLYKLKIKYEKQNNKVKRNVIKIIMNSLWGKFAQKWVNFEYFIKSEDDIDFESEEAYKIWDTDFMLIKKIKESTYSSKPIQNGVFTLSWARYHMKSIWDAGAKEGAECIYSDTDSIFVHKEHFKKNAKFMLNGLKVPIIGSEVGQLELECEFDKLLCAGKKQYMGFYTYFQDGKPCIKEKKRFKGIPSNYIIPELYAHLLSGADKEAKIQFLKFRREWGSVKGYIENKTVKAT
# B3: D407C: TP-DNAP1 variant (protein)
# chain: MDYKDKALNDLRNVYADFDSLPLDFRQILIKDRATLLQKEDVEKKILERQEDAKKYAEYLKQSEIPERISLPNIKRHKGVSISFEETSEDMVLEPRPFIFDGLNIRCFRRETIFSLKNKILNMVKESSSFKNVSRQSVSFMYFKIFNKGKVIASTKSVNIYEDKIDERLEDLCNNFDDVLKKIIDVTYGYESLFVSETYSYVIFYAKSIYFPQPRCVNNWGNNIPNILTFDSFKLFTANKNNVSCIKQCSRFLWQKDFNTLEEMIEYKNGNICIVTPQLHINDVRDIKSFNDIRLYSESPIKTFSVIDNTITYLFYFKEHLGVIFNITKSRHDRRVTKFSPLSKFSDVKNITVCFDIESYFDPEKESNQVNIPFICCASIIYNKVIGNIVDFEGRDCVAQMIEYVVCICGELNISSVELIAHNGGGYDFHYILSSMYNPAAIKNILIRNNSFISFNFAHDGVKFSVKDSYSFLLCSLANASKAFLNEETFKKTDFPHHDLKTADDLYKVYKEWSSVNTEINHVVEKEKLLITSEHIVNFTKNDKSKTLIEWSKDYCRNDVLVLSKVWLEFKNAVEDIFNCELVDQTMTLAGLSYKLFQANMPFDVELRHPNKEDYFNMREALIGGRCISVNGIYKDVLCLDVKSLYPASMAFYDQPYGSFKRVSSRPKDELGIYYVRVTPNRNNKSNFFPIRSHNKITYNNFEESTYIAWYTNVDIDIGLSEGHNIEYIPFDSYGNIGYSWSKKGKIFEKYIKDVLYKLKIKYEKQNNKVKRNVIKIIMNSLWGKFAQKWVNFEYFIKSEDDIDFESEEAYKIWDTDFMLIKKIKESTYSSKPIQNGVFTLSWARYHMKSIWDAGAKEGAECIYSDTDSIFVHKEHFKKNAKFMLNGLKVPIIGSEVGQLELECEFDKLLCAGKKQYMGFYTYFQDGKPCIKEKKRFKGIPSNYIIPELYAHLLSGADKEAKIQFLKFRREWGSVKGYIENKTVKAT
# B4: D407H: TP-DNAP1 variant (protein)
# chain: MDYKDKALNDLRNVYADFDSLPLDFRQILIKDRATLLQKEDVEKKILERQEDAKKYAEYLKQSEIPERISLPNIKRHKGVSISFEETSEDMVLEPRPFIFDGLNIRCFRRETIFSLKNKILNMVKESSSFKNVSRQSVSFMYFKIFNKGKVIASTKSVNIYEDKIDERLEDLCNNFDDVLKKIIDVTYGYESLFVSETYSYVIFYAKSIYFPQPRCVNNWGNNIPNILTFDSFKLFTANKNNVSCIKQCSRFLWQKDFNTLEEMIEYKNGNICIVTPQLHINDVRDIKSFNDIRLYSESPIKTFSVIDNTITYLFYFKEHLGVIFNITKSRHDRRVTKFSPLSKFSDVKNITVCFDIESYFDPEKESNQVNIPFICCASIIYNKVIGNIVDFEGRDCVAQMIEYVVHICGELNISSVELIAHNGGGYDFHYILSSMYNPAAIKNILIRNNSFISFNFAHDGVKFSVKDSYSFLLCSLANASKAFLNEETFKKTDFPHHDLKTADDLYKVYKEWSSVNTEINHVVEKEKLLITSEHIVNFTKNDKSKTLIEWSKDYCRNDVLVLSKVWLEFKNAVEDIFNCELVDQTMTLAGLSYKLFQANMPFDVELRHPNKEDYFNMREALIGGRCISVNGIYKDVLCLDVKSLYPASMAFYDQPYGSFKRVSSRPKDELGIYYVRVTPNRNNKSNFFPIRSHNKITYNNFEESTYIAWYTNVDIDIGLSEGHNIEYIPFDSYGNIGYSWSKKGKIFEKYIKDVLYKLKIKYEKQNNKVKRNVIKIIMNSLWGKFAQKWVNFEYFIKSEDDIDFESEEAYKIWDTDFMLIKKIKESTYSSKPIQNGVFTLSWARYHMKSIWDAGAKEGAECIYSDTDSIFVHKEHFKKNAKFMLNGLKVPIIGSEVGQLELECEFDKLLCAGKKQYMGFYTYFQDGKPCIKEKKRFKGIPSNYIIPELYAHLLSGADKEAKIQFLKFRREWGSVKGYIENKTVKAT
# B5: D407G: TP-DNAP1 variant (protein)
# chain: MDYKDKALNDLRNVYADFDSLPLDFRQILIKDRATLLQKEDVEKKILERQEDAKKYAEYLKQSEIPERISLPNIKRHKGVSISFEETSEDMVLEPRPFIFDGLNIRCFRRETIFSLKNKILNMVKESSSFKNVSRQSVSFMYFKIFNKGKVIASTKSVNIYEDKIDERLEDLCNNFDDVLKKIIDVTYGYESLFVSETYSYVIFYAKSIYFPQPRCVNNWGNNIPNILTFDSFKLFTANKNNVSCIKQCSRFLWQKDFNTLEEMIEYKNGNICIVTPQLHINDVRDIKSFNDIRLYSESPIKTFSVIDNTITYLFYFKEHLGVIFNITKSRHDRRVTKFSPLSKFSDVKNITVCFDIESYFDPEKESNQVNIPFICCASIIYNKVIGNIVDFEGRDCVAQMIEYVVGICGELNISSVELIAHNGGGYDFHYILSSMYNPAAIKNILIRNNSFISFNFAHDGVKFSVKDSYSFLLCSLANASKAFLNEETFKKTDFPHHDLKTADDLYKVYKEWSSVNTEINHVVEKEKLLITSEHIVNFTKNDKSKTLIEWSKDYCRNDVLVLSKVWLEFKNAVEDIFNCELVDQTMTLAGLSYKLFQANMPFDVELRHPNKEDYFNMREALIGGRCISVNGIYKDVLCLDVKSLYPASMAFYDQPYGSFKRVSSRPKDELGIYYVRVTPNRNNKSNFFPIRSHNKITYNNFEESTYIAWYTNVDIDIGLSEGHNIEYIPFDSYGNIGYSWSKKGKIFEKYIKDVLYKLKIKYEKQNNKVKRNVIKIIMNSLWGKFAQKWVNFEYFIKSEDDIDFESEEAYKIWDTDFMLIKKIKESTYSSKPIQNGVFTLSWARYHMKSIWDAGAKEGAECIYSDTDSIFVHKEHFKKNAKFMLNGLKVPIIGSEVGQLELECEFDKLLCAGKKQYMGFYTYFQDGKPCIKEKKRFKGIPSNYIIPELYAHLLSGADKEAKIQFLKFRREWGSVKGYIENKTVKAT
# B6: D407V, S415T: TP-DNAP1 variant (protein)
# chain: MDYKDKALNDLRNVYADFDSLPLDFRQILIKDRATLLQKEDVEKKILERQEDAKKYAEYLKQSEIPERISLPNIKRHKGVSISFEETSEDMVLEPRPFIFDGLNIRCFRRETIFSLKNKILNMVKESSSFKNVSRQSVSFMYFKIFNKGKVIASTKSVNIYEDKIDERLEDLCNNFDDVLKKIIDVTYGYESLFVSETYSYVIFYAKSIYFPQPRCVNNWGNNIPNILTFDSFKLFTANKNNVSCIKQCSRFLWQKDFNTLEEMIEYKNGNICIVTPQLHINDVRDIKSFNDIRLYSESPIKTFSVIDNTITYLFYFKEHLGVIFNITKSRHDRRVTKFSPLSKFSDVKNITVCFDIESYFDPEKESNQVNIPFICCASIIYNKVIGNIVDFEGRDCVAQMIEYVVVICGELNITSVELIAHNGGGYDFHYILSSMYNPAAIKNILIRNNSFISFNFAHDGVKFSVKDSYSFLLCSLANASKAFLNEETFKKTDFPHHDLKTADDLYKVYKEWSSVNTEINHVVEKEKLLITSEHIVNFTKNDKSKTLIEWSKDYCRNDVLVLSKVWLEFKNAVEDIFNCELVDQTMTLAGLSYKLFQANMPFDVELRHPNKEDYFNMREALIGGRCISVNGIYKDVLCLDVKSLYPASMAFYDQPYGSFKRVSSRPKDELGIYYVRVTPNRNNKSNFFPIRSHNKITYNNFEESTYIAWYTNVDIDIGLSEGHNIEYIPFDSYGNIGYSWSKKGKIFEKYIKDVLYKLKIKYEKQNNKVKRNVIKIIMNSLWGKFAQKWVNFEYFIKSEDDIDFESEEAYKIWDTDFMLIKKIKESTYSSKPIQNGVFTLSWARYHMKSIWDAGAKEGAECIYSDTDSIFVHKEHFKKNAKFMLNGLKVPIIGSEVGQLELECEFDKLLCAGKKQYMGFYTYFQDGKPCIKEKKRFKGIPSNYIIPELYAHLLSGADKEAKIQFLKFRREWGSVKGYIENKTVKAT
# Test system: p1
# Assay: p1 copy number by p1-encoded mKate2 fluorescence
# Type: cell-based, S. cerevisiae
# Conditions: OR-Y24, measured in triplicate
# Outline: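 Yeast OR-Y24 strains carrying TP-DNAP1 variants were grown to saturation from a 1:10,000 dilution, and p1-encoded mKate2 fluorescence was measured by flow cytometry (ex/em 561/620 nm). Values were converted to copy number via a linear calibration against qPCR of p1-encoded LEU2 versus genomic LEU3, or by plate-reader OD600-normalized fluorescence relative to w.t. TP-DNAP1.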
row,Molecule,Mean fold-increase over w.t. (p1 copy number) [fold]
1,B1,2.16
2,B2,2.25
3,B3,2.26
4,B4,2.57
5,B5,2.53
6,B6,1.95
